The target in assay [1] is endogenous mouse SIRPα of wildtype BALB/c mice (mouse (BALB/c)) (UniProt P97797). Nature of the assay: flow cytometry; CD47 protein on peritoneal cavity cells of wildtype BALB/c mice, detected with anti-CD47 human antibody and AF647-Anti-hIgG. A general note: In flow cytometry, cells or beads pass a laser one at a time.
Assay [2] has as its target endogenous mouse SIRPα of wildtype C57BL/6 mice (NP_031573.2) (mouse (C57BL/6)) (UniProt P97797). Nature of the assay: flow cytometry; CD47 protein on peritoneal cavity cells of wildtype C57BL/6 mice, detected with anti-CD47 human antibody and AF647-Anti-hIgG.

Chain of UniProt P97797 (P97797 other isoform, or with tags, fused parts or gaps): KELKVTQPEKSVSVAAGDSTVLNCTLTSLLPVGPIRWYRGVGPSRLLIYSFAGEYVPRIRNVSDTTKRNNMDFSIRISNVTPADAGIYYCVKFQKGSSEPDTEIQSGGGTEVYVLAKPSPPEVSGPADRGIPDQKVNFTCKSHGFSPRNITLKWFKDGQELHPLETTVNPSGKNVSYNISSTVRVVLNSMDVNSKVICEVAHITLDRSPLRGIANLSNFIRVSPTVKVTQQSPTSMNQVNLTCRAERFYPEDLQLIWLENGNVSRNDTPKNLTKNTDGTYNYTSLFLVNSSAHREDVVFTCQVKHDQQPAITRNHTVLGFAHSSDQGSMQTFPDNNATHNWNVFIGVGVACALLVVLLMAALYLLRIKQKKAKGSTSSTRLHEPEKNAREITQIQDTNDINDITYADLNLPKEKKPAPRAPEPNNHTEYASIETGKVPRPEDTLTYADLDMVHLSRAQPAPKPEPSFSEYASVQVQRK

On to “mouse CD47 proteins (added to peritoneal cavity cells, Example 16) (ligand)”, for which the geometric mean of flow cytometry signal in assay [1] and in assay [2] was 100 in each case.

Source of the values: patent publication US20190373867A1.
